Earlier results in publication PMC7395068, “The evolution of strategies to minimise the risk of human drug-induced liver injury (DILI) in drug discovery and development” (Archives of Toxicology, 2020).

Details: LTKB DILIrank category; ref Chen 2016; cited from earlier work

Compound	DILI severity category
bivalirudin	vNo-DILI-Concern
bleomycin	Ambiguous DILI-concern

Same assay, conditions: binary DILI call; ref Chen 2016; cited from earlier work

Compound	DILI +VE (5-8), DILI -VE (-4)
bivalirudin	-VE
bleomycin	-VE

Same assay, conditions: binary in vivo DILI call given beside the severity category; ref Chen 2016; cited from earlier work

Compound	DILI +VE (5-8), DILI -VE (-4)
palivizumab	-VE
polymyxin b sulfate	-VE
secretin	-VE
sucralfate	-VE
tinzaparin	-VE

Same assay, conditions: binary in vivo human DILI call; ref Chen 2016; cited from earlier work

Compound	DILI +VE (5-8), DILI -VE (-4)
corticotropin (SYSMEHFRWGKPVGKKRRPVKVYPNGAEDESAEAFPLEF; Corticotropin; UniProt P01189 138-176, looked up)	-VE
denileukin diftitox	-VE
exenatide	-VE
gemtuzumab ozogamicin	+VE
glatiramer acetate	-VE

Same assay, conditions: human DILI concern category (LTKB DILIrank); ref Chen 2016; cited from earlier work

Compound	DILI severity category
palivizumab	vNo-DILI-Concern
polymyxin b sulfate	vNo-DILI-Concern
secretin	vNo-DILI-Concern
sucralfate	vNo-DILI-Concern
tinzaparin	Ambiguous DILI-concern

Same assay, conditions: human DILI, LTKB DILIrank category; ref Chen 2016; cited from earlier work

Compound	DILI severity category
corticotropin (SYSMEHFRWGKPVGKKRRPVKVYPNGAEDESAEAFPLEF; Corticotropin; UniProt P01189 138-176, looked up)	vNo-DILI-Concern
denileukin diftitox	Ambiguous DILI-concern
exenatide	vNo-DILI-Concern
gemtuzumab ozogamicin	vMost-DILI-Concern
glatiramer acetate	Ambiguous DILI-concern

Same assay, conditions: in vivo; cited from earlier work

Compound	DILI +VE (5-8), DILI -VE (-4)	DILI severity category
basiliximab	-VE	vNo-DILI-Concern
bevacizumab	-VE	vNo-DILI-Concern
botulinum toxin type a	-VE	vNo-DILI-Concern
canakinumab	+VE	vLess-DILI-Concern
certolizumab pegol	-VE	Ambiguous DILI-concern
cholestyramine	-VE	Ambiguous DILI-concern
colestipol	-VE	Ambiguous DILI-concern
colistimethate	-VE	vNo-DILI-Concern
dalteparin sodium	+VE	vLess-DILI-Concern
ecallantide	-VE	vNo-DILI-Concern
enoxaparin	+VE	vLess-DILI-Concern
epoetin alfa	-VE	vNo-DILI-Concern
erythropoietin	-VE	vNo-DILI-Concern
etanercept	+VE	vLess-DILI-Concern
ferumoxides	-VE	vNo-DILI-Concern
ferumoxytol	-VE	vNo-DILI-Concern
filgrastim	-VE	Ambiguous DILI-concern
galsulfase	-VE	vNo-DILI-Concern
golimumab	-VE	Ambiguous DILI-concern
heparin sodium	+VE	vLess-DILI-Concern
hyaluronidase	-VE	vNo-DILI-Concern
infliximab	+VE	vMost-DILI-Concern
interferon alfacon-1	+VE	vMost-DILI-Concern
interferon beta-1b	+VE	vMost-DILI-Concern
lepirudin	-VE	Ambiguous DILI-concern

Compound	DILI +VE (5-8), DILI -VE (-4)	DILI severity category
mecasermin	-VE	Ambiguous DILI-concern
muromonab-cd3	-VE	Ambiguous DILI-concern
natalizumab	+VE	vMost-DILI-Concern
nesiritide	-VE	vNo-DILI-Concern
ofatumumab	-VE	vNo-DILI-Concern
omalizumab	-VE	vNo-DILI-Concern
panitumumab	-VE	vNo-DILI-Concern
peginterferon alfa-2a	-VE	Ambiguous DILI-concern
pentosan polysulfate	-VE	Ambiguous DILI-concern
polyethylene glycol 3350	-VE	vNo-DILI-Concern
pramlintide (KCNTATCATQRLANFLVHSSNNFGPILPPTNVGSNTY; chains of the INN, looked up)	-VE	vNo-DILI-Concern
protamine sulfate	-VE	vNo-DILI-Concern
rilonacept	-VE	vNo-DILI-Concern
romiplostim	-VE	vNo-DILI-Concern
sacrosidase	-VE	Ambiguous DILI-concern
sargramostim	-VE	vNo-DILI-Concern
simethicone	-VE	vNo-DILI-Concern
somatropin recombinant	-VE	vNo-DILI-Concern
teriparatide	-VE	vNo-DILI-Concern
triptorelin pamoate	+VE	vLess-DILI-Concern
urokinase	-VE	vNo-DILI-Concern
ustekinumab	-VE	vNo-DILI-Concern
verteporfin	-VE	Ambiguous DILI-concern
vitamin e	-VE	–

Details: […]; cited from earlier work

Compound	In vivo DILI
O=S(=O)([O-])[O-].[Fe+2] [ferrous sulfate]	+VE
CC1(C)O[C@@H]2C[C@H]3[C@@H]4C[C@H](F)C5=CC(=O)C=C[C@]5(C)[C@H]4[C@@H](O)C[C@]3(C)[C@]2(C(=O)CO)O1 [flunisolide]	-VE

Same assay, conditions: assignment in O'Brien 2006; ref O'Brien 2006; cited from earlier work

Compound	In vivo DILI
CC(=O)Nc1ccc2c(c1)Cc1ccccc1-2 [acetamido uorene]	+VE
C=CCO [ally alcohol]	+VE
c1ccc2c(c1)cc1ccc3cccc4ccc2c1c34 [benzopyrene]	+VE
C[N+](C)(C)CC(=O)O.[Cl-] [betaine hcl (acidic)]	+VE
Brc1ccccc1 [bromobenzene]	+VE
CCCCSCCC(N)C(=O)O (centres unmarked) [buthionine]	+VE
ClC(Cl)(Cl)Cl [carbon tetrachloride]	+VE
C=C1[C@@H](C)[C@H]2[C@H](Cc3ccccc3)NC(=O)[C@]23OC(=O)/C=C/[C@H](O)CCC[C@@H](C)C/C=C/[C@H]3[C@@H]1O [cytochalasin b]	+VE
C=C1[C@@H](C)[C@H]2[C@H](Cc3ccccc3)NC(=O)[C@]23[C@H](OC(C)=O)/C=C/[C@@](C)(O)C(=O)[C@@H](C)C/C=C/[C@H]3[C@@H]1O [cytochalasin d]	+VE
CCSCC[C@H](N)C(=O)O [ethionine]	+VE
N[C@H]1C(O)O[C@H](CO)[C@@H](O)[C@@H]1O (some centres unmarked) [glucosamine]	+VE
C[C@H](CCC(=O)O)C[C@H](C)C[C@H](C)C(=O)/C=C(\O)[C@H](C)C[C@H](C)C/C=C/[C@@H](C)[C@@H](O)[C@@H](C)[C@@H](O)C[C@@H]1CC[C@@](C)([C@H]2CC[C@@](C)([C@@H](C)O)O2)O1 [ionomycin]	+VE

Same assay, conditions: in vivo; cited from earlier work

Compound	In vivo DILI
CC1(C)[C@@H](O)CC[C@]2(C)[C@H]3C(=O)C=C4[C@@H]5C[C@@](C)(C(=O)O)CC[C@]5(C)CC[C@@]4(C)[C@]3(C)CC[C@@H]12 [18 beta-glycyrrhetic acid]	-VE
CN(C)[C@@H]1C(O)=C(C(N)=O)C(=O)[C@@]2(O)C(O)=C3C(=O)c4c(O)ccc(Cl)c4[C@@](C)(O)[C@H]3C[C@@H]12 [chlortetracycline]	+VE
CC1(COc2ccc(CC3SC(=O)NC3=O)cc2)CCCCC1 (centres unmarked) [ciglitizone]	-VE
O=C(O)CC(O)(CC(=O)O)C(=O)O [citrate]	-VE
CC/C(=C(/CC)c1ccc(O)cc1)c1ccc(O)cc1 [diethylsilbesterol]	+VE
c1cc[n+]2c(c1)-c1cccc[n+]1CC2 [diquat]	+VE
C[C@]12CC[C@@H]3c4ccc(O)cc4CC[C@H]3[C@@H]1C[C@@H](O)[C@@H]2O [estriol]	-VE
C=CCc1ccc(O)c(OC)c1 [eugenol]	+VE
C=O [formaldehyde]	+VE
Cl [hydrochloric acid]	+VE
COc1ccc2c3c1O[C@H]1C(=O)CC[C@H]4[C@@H](C2)N(C)CC[C@]314 [hydrocodone]	-VE
